The target in assay [1] is T1, DR4-IgG (human).
T1 construct: Mature DR4 ECD (amino acids 1-218); Made in human 293 cells; also called DR4 receptor immunoadhesin
Briefly: BIAcore SPR; KD relative to Flag.Apo2L.WT. (In general: In SPR one partner is held on a chip, and binding of the other changes the refractive index at the surface.)

Assay [2] addresses DR5-IgG (human). In words: BIAcore SPR; KD relative to Flag.Apo2L.WT.
The target in assay [3] is T1, DR4-IgG. Briefly: AlphaQuest displacement of biotinylated Apo2L/TRAIL from receptor-IgG; ratio to Flag-Apo2L.WT. From the text: (§1) This assay produces a signal when a “donor” and “acceptor” bead are brought in close proximity facilitating singlet oxygen-mediated, fluorescence resonance energy transfer. […] The acceptor bead is coated with Staphylococcal Protein A and is used to capture the receptor-IgG protein.

In a further assay the target is T2, DcR2-IgG (UniProt Q9UBN6 56-211, limits assumed).
T2 construct: not shown: IgG portion, not described
T2 sequence (looked up): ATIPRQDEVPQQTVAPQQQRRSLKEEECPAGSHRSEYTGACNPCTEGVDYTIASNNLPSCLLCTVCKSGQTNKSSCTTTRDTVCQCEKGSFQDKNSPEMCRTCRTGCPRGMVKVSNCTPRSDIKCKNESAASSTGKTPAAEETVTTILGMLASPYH
The assay is described as above.
From the text: as §1

The next assay has as its target T3, DcR1 receptor-IgG (UniProt O14798 26-236, limits assumed).
T3 construct: Receptor-IgG protein captured on Protein A acceptor beads; construct not described; not shown: IgG portion, not described
T3 sequence (looked up): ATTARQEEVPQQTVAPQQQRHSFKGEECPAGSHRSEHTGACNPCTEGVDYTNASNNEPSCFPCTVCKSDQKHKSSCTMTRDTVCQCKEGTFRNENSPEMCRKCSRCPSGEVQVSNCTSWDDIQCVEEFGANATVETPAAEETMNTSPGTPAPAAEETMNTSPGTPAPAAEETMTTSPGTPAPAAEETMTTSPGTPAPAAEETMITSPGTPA
The assay is described as above.
From the text: as §1

Assay [4] deals with T1, DR4-IgG. Briefly: BIAcore SPR, receptor-IgG immobilised; ratio to wild-type Apo2L/TRAIL(114-281). On the procedure:
(§2) Briefly, dissociation constants (Kd) for binding of Apo-2L variants (see Tables II and III) to immobilized receptor immunoadhesins were determined from surface plasmon resonance (SPR) measurements on a Pharmacia BIAcore 3000. DR5-IgG (also referred to as Apo-2-IgG) and DcR2-IgG receptor immunoadhesins were prepared as described in WO98/51793 published November 19, 1998 and WO99/10484 published Mar. 9, 1999, respectively. DR4-IgG was prepared as follows. A mature DR4 ECD sequence (amino acids 1-218; Pan et al., supra) was cloned into a pCMV-1 Flag vector (Kodak) downstream of the Flag signal sequence and fused to the CH1, hinge and Fc region of human immunoglobulin G₁ heavy chain as described previously [Aruffo et al., Cell, 61:1303-1313 (1990)]. The immunoadhesin was expressed by transient transfection into human 293 cells and purified from the cell supernatants by protein A affinity chromatography, as described by Ashkenazi et al., Proc. Natl. Acad. Sci., 88:10535-10539 (1991)]. The receptor immunoadhesin proteins were coupled to the sensor chip surface at a level of 300-500 resonance units using amine coupling chemistry (Pharmacia Biosensor). Sensorgrams were recorded for Apo-2L binding at concentrations ranging from 15.6 nM to 500 nM in 2-fold increments. The kinetics constants were determined by non-linear regression analysis and used to calculate the binding constants.

Assay [5] concerns the target DR5-IgG (human). The description is as above. The method, then:
as §2

Assay [6] deals with T4, DR5-IgG (human).
T4 construct: also called Apo-2-IgG
Described as above. On the procedure:
as §2

Assay [7] deals with DR5-IgG (human). Briefly: AlphaQuest displacement of biotinylated Apo2L/TRAIL from receptor-IgG; ratio to Flag-Apo2L.WT.
From the text: as §1

In assay [8] the target is T4, DR5-IgG. Briefly: BIAcore SPR, receptor-IgG immobilised. On the procedure: as §2
(§3) These variants were expressed and purified, the purified proteins were assayed for receptor-binding by BIAcore® and bioactivity on SK-MES lung carcinoma cells, as previously described (see, e.g. Hymowitz et al. (2000) Biochemistry 39, 633-640).

The target in assay [9] is T1, DR4-IgG. In words: BIAcore SPR, receptor-IgG immobilised. On the procedure:
as §2, §3

Assay [10] concerns the target DR5-IgG (human). Briefly: BIAcore SPR, receptor-IgG immobilised. The method, then: as §2, §3
Assay [11] addresses T4, DR5-IgG. Briefly: BIAcore SPR; KD relative to Flag.Apo2L.WT.
The target in assay [12] is T4, DR5-IgG. Briefly: AlphaQuest displacement of biotinylated Apo2L/TRAIL from receptor-IgG; ratio to Flag-Apo2L.WT.
From the text: as §1

B1: Flag-Apo2L.DR4-8 (ligand)
chain: VRERGPQRVAAHITGTRGRSNTLSSPNSKNEKALGRKINSWESSRSGHSFLSNLHLRNGELVIHEKGFYYIYSQTAFRFSEEIKEVTRNDKQMVQYIYKWTDYPDPILLMKSARNSCWSKDAEYGLYSIYQGGIFELKENDRIFVSVTNEHLIDMDHEASFFGAFLVG
On to B1, for which the “KD ratio (mut/wt)” value in the assay with DR4-IgG [1] was 0.2 ratio (mut/wt); with DR5-IgG [2], 1100 ratio (mut/wt). Moreover, the “IC50 ratio (mutant/wt)” value was 1 ratio (mutant/wt) with DR4-IgG [3], 15 ratio (mutant/wt) with DcR2-IgG and 5.5 ratio (mutant/wt) in the assay with DcR1 receptor-IgG.

B2: Apo2L/TRAIL(114-281) mutant DR5-11 (ligand)
chain: VRERGPQRVAAHITGTRGRSNTLSSPNSKNEKALGRKINSWESSRSGHSFLSNLHLRNGELVIHEKGFYYIYSQTAFRFKEEIKENTKNDKQMVQYIYKYTSYPDPILLMKSARNSCWSKDAEYGLYSIYQGGIFELKENDRIFVSVTNEGLVDMSHEASFFGAFLVG
As to B2, the “KD ratio (mutant/wt)” value with DR4-IgG [4] is 5 ratio (mutant/wt); in the assay with DR5-IgG [5] it was 2.2 ratio (mutant/wt).

B3: Apo2L/TRAIL(114-281) mutant DR5-5 (ligand)
chain: VRERGPQRVAAHITGTRGRSNTLSSPNSKNEKALGRKINSWESSRSGHSFLSNLHLRNGELVIHEKGFYYIYSQTSFRFTEEIKENTKNDKQMVQYIYKYTSYPDPILLMKSARNSCWSKDAEYGLYSIYQGGIFELKENDRIFVSVTNEGLLDMNHEASFFGAFLVG
Consider B3, for which the “KD ratio (mutant/wt)” value was 12.4 ratio (mutant/wt) with DR4-IgG [4] and 2.5 ratio (mutant/wt) with DR5-IgG [5].

B4: Flag-Apo2L.DR4-9 (ligand)
chain: VRERGPQRVAAHITGTRGRSNTLSSPNSKNEKALGRKINSWESSRSGHSFLSNLHLRNGELVIHEKGFYYIYSQTAFRFSEEIKERTRNDKQMVQYIYKWTDYPDPILLMKSARNSCWSKDAEYGLYSIYQGGIFELKENDRIFVSVTNEHLIDMDHEASFFGAFLVG
As to B4, the “KD ratio (mut/wt)” value in the assay with DR4-IgG [1] is 4.3 ratio (mut/wt); with DR5-IgG [2], 1200 ratio (mut/wt). The “IC50 ratio (mutant/wt)” value was 1.1 ratio (mutant/wt) in the assay with DR4-IgG [3], 18 ratio (mutant/wt) with DcR2-IgG and 4 ratio (mutant/wt) with DcR1 receptor-IgG.

B5: Apo2L/TRAIL(114-281) mutant DR5-23 (ligand)
chain: VRERGPQRVAAHITGTRGRSNTLSSPNSKNEKALGRKINSWESSRSGHSFLSNLHLRNGELVIHEKGFYYIYSQTAFKFREEIKENTKNDKQMVQYIYKYTSYPDPILLMKSARNSCWSKDAEYGLYSIYQGGIFELKENDRIFVSVTNESLLDMEHEASFFGAFLVG
notes: Untagged, from pAPOK5.0, purified from E. coli
Take B5: the “KD ratio (mutant/wt)” value was 2.4 ratio (mutant/wt) in the assay with DR5-IgG [6] and 105 ratio (mutant/wt) with DR4-IgG [4].

B6: Flag-Apo2L.DR5-1 (ligand)
chain: VRERGPQRVAAHITGTRGRSNTLSSPNSKNEKALGRKINSWESSRSGHSFLSNLHLRNGELVIHEKGFYYIYSQTAFKFKEEIKENTKNDKQMVQYIYKYTSYPDPILLMKSARNSCWSKDAEYGLYSIYQGGIFELKENDRIFVSVTNEALIDMDHEASFFGAFLVG
As to B6, the “KD ratio (mut/wt)” value with DR4-IgG [1] was 11 ratio (mut/wt); in the assay with DR5-IgG [2], 2.2 ratio (mut/wt). Moreover, the “IC50 ratio (mutant/wt)” value is 32 ratio (mutant/wt) in the assay with DcR2-IgG and 2.4 ratio (mutant/wt) with DR5-IgG [7].

B7: Flag-Apo2L.DR5-21 (ligand)
chain: VRERGPQRVAAHITGTRGRSNTLSSPNSKNEKALGRKINSWESSRSGHSFLSNLHLRNGELVIHEKGFYYIYSQTAFKFKEEIKENTKNDKQMVQYIYKYTSYPDPILLMKSARNSCWSKDAEYGLYSIYQGGIFELKENDRIFVSVTNEDLLNMEHEASFFGAFLVG
In the case of B7, in the assay with DcR2-IgG, the “IC50 ratio (mutant/wt)” value was 9.4 ratio (mutant/wt).

B8: Apo2L/TRAIL(114-281) mutant DR5-4 (ligand)
chain: VRERGPQRVAAHITGTRGRSNTLSSPNSKNEKALGRKINSWESSRSGHSFLSNLHLRNGELVIHEKGFYYIYSQTAFRFREEIKENTKNDKQMVQYIYKYTSYPDPILLMKSARNSCWSKDAEYGLYSIYQGGIFELKENDRIFVSVTNEQLLDMNHEASFFGAFLVG
As to B8, the “KD ratio (mutant/wt)” value was 3.1 ratio (mutant/wt) with DR4-IgG [4] and 1.3 ratio (mutant/wt) with DR5-IgG [5].

B9: Flag-Apo2L.DR5-2 (ligand)
chain: VRERGPQRVAAHITGTRGRSNTLSSPNSKNEKALGRKINSWESSRSGHSFLSNLHLRNGELVIHEKGFYYIYSQTAFKFKEEIKENTKNDKQMVQYIYKYTSYPDPILLMKSARNSCWSKDAEYGLYSIYQGGIFELKENDRIFVSVTNEHLIDMDHEASFFGAFLVG
B9: the “KD ratio (mut/wt)” value in the assay with DR4-IgG [1] was 11 ratio (mut/wt); with DR5-IgG [2], 1.9 ratio (mut/wt). The “IC50 ratio (mutant/wt)” value with DcR2-IgG is 5 ratio (mutant/wt); in the assay with DR5-IgG [7] it was 2.8 ratio (mutant/wt).

B10: Apo2L.DR5-8 (ligand)
chain: VRERGPQRVAAHITGTRGRSNTLSSPNSKNEKALGRKINSWESSRSGHSFLSNLHLRNGELVIHEKGFYYIYSQTQFKFREEIKENTKNDKQMVQYIYKYTSYPDPILLMKSARNSCWSKDAEYGLYSIYQGGIFELKENDRIFVSVTNERLLQMDHEASFFGAFLVG
notes: also called Apo2L/TRAIL.DR5-8
Take B10: the “DR5-binding (ratio relative to wild-type Apo2L)” value in the assay with DR5-IgG [8] was 0.6 ratio relative to wild-type Apo2L. Further, the “DR4-binding (ratio relative to wild-type Apo2L)” value with DR4-IgG [9] is > 25 ratio relative to wild-type Apo2L.

B11: Apo2L.DR5-8B (ligand)
chain: VRERGPQRVAAHITGTRGRSNTLSSPNSKNEKALGRKINSWESSRSGHSFLSNLHLRNGELVIHEKGFYYIYSQTQFKFREEIKENTKNDKQMVQYIYKYTSYPDPILLMKSARNSCWSKDAEYGLYSIYQGGIFELKENDRIFVSVTNEHLIDMDHEASFFGAFLVG
In the case of B11, in the assay with DR4-IgG [9], the “DR4-binding (ratio relative to wild-type Apo2L)” value is 2.5 ratio relative to wild-type Apo2L. In the assay with DR5-IgG [10], the “DR5-binding (ratio relative to wild-type Apo2L)” value is 0.6 ratio relative to wild-type Apo2L.

B12: Apo2L.DR5-8C (ligand)
chain: VRERGPQRVAAHITGTRGRSNTLSSPNSKNEKALGRKINSWESSRSGHSFLSNLHLRNGELVIHEKGFYYIYSQTQFKFREEIKENTKNDKQMVQYIYKYTSYPDPILLMKSARNSCWSKDAEYGLYSIYQGGIFELKENDRIFVSVTNEHLLDMDHEASFFGAFLVG
Turning to B12, in the assay with DR4-IgG [9], the “DR4-binding (ratio relative to wild-type Apo2L)” value is 5.5 ratio relative to wild-type Apo2L. In addition, the “DR5-binding (ratio relative to wild-type Apo2L)” value in the assay with DR5-IgG [10] was 0.6 ratio relative to wild-type Apo2L.

B13: Flag-Apo2L.DR5-8 (ligand, not shown: small tags and cut ends)
chain: VRERGPQRVAAHITGTRGRSNTLSSPNSKNEKALGRKINSWESSRSGHSFLSNLHLRNGELVIHEKGFYYIYSQTQFKFREEIKENTKNDKQMVQYIYKYTSYPDPILLMKSARNSCWSKDAEYGLYSIYQGGIFELKENDRIFVSVTNERLLQMDHEASFFGAFLVG
modifications: N-terminal Flag epitope tag (pFLAG-MAC) is not written because its letters are not given
With B13, the “KD ratio (mut/wt)” value with DR5-IgG [11] is 0.8 ratio (mut/wt). Moreover, the “IC50 ratio (mutant/wt)” value with DR5-IgG [12] is 0.7 ratio (mutant/wt).

The record behind these values is patent US20070098681A1 (published 2007).
